The text below walks through data of publication PMC2959125 (Biochemistry, 2010).

B1: N-acetyl-L-ornithine transcarbamylase from Xanthomonas campestris, K302A mutant (enzyme)
chain: MSLKHFLNTQDWSRAELDALLTQAALFKRNKLGSELKGKSIALVFFNPSMRTRTSFELGAFQLGGHAVVLQPGKDAWPIEFNLGTVMDGDTEEHIAEVARVLGRYVDLIGVRAFPKFVDWSKDREDQVLKSFAKYSPVPVINMETITHPCQELAHALALQEHFGTPDLRGKKYVLTWTYHPKPLNTAVANSALTIATRMGMDVTLLCPTPDYILDERYMDWAAQNVAESGGSLQVSHDIDSAYAGADVVYAKSWGALPFFGNWEPEKPIRDQYQHFIVDERKMALTNNGVFSHCLPLRRNVAATDAVMDSPNCIAIDEAENRLHVQKAIMAALVGQSRP
B2: N-acetyl-L-ornithine transcarbamylase from Xanthomonas campestris, K302E mutant (enzyme)
chain: MSLKHFLNTQDWSRAELDALLTQAALFKRNKLGSELKGKSIALVFFNPSMRTRTSFELGAFQLGGHAVVLQPGKDAWPIEFNLGTVMDGDTEEHIAEVARVLGRYVDLIGVRAFPKFVDWSKDREDQVLKSFAKYSPVPVINMETITHPCQELAHALALQEHFGTPDLRGKKYVLTWTYHPKPLNTAVANSALTIATRMGMDVTLLCPTPDYILDERYMDWAAQNVAESGGSLQVSHDIDSAYAGADVVYAKSWGALPFFGNWEPEKPIRDQYQHFIVDERKMALTNNGVFSHCLPLRRNVEATDAVMDSPNCIAIDEAENRLHVQKAIMAALVGQSRP
B3: N-acetyl-L-ornithine transcarbamylase from Xanthomonas campestris, K302R mutant (enzyme)
chain: MSLKHFLNTQDWSRAELDALLTQAALFKRNKLGSELKGKSIALVFFNPSMRTRTSFELGAFQLGGHAVVLQPGKDAWPIEFNLGTVMDGDTEEHIAEVARVLGRYVDLIGVRAFPKFVDWSKDREDQVLKSFAKYSPVPVINMETITHPCQELAHALALQEHFGTPDLRGKKYVLTWTYHPKPLNTAVANSALTIATRMGMDVTLLCPTPDYILDERYMDWAAQNVAESGGSLQVSHDIDSAYAGADVVYAKSWGALPFFGNWEPEKPIRDQYQHFIVDERKMALTNNGVFSHCLPLRRNVRATDAVMDSPNCIAIDEAENRLHVQKAIMAALVGQSRP

This data set deals with the molecule itself. The data set is described as follows: crystal structure.
Consider B1, for which the binding result was “binds”. The entry for B2 is “binds”. Next, B3: “binds”.
